Tests used:
Nsp9COV19 (15N-labeled) [1] = target: T1, Nsp9COV19 (15N-labeled) (SARS-CoV-2, UniProt P0DTD1 4141-4253); test: 15N-1H HSQC NMR titration
Nsp9COV19 (15N-labeled) [2] = target: T1, Nsp9COV19 (15N-labeled); test: 15N-1H HSQC NMR titration; remark: listed apart in the source

In the case of UUGGAGUU (ssRNA) [RNA.2 (8 nt ssRNA)], the Kd (Nsp9COV19 (15N-labeled) [1]) is reported as about 550 µM.

AUUCG (ssRNA) [RNA.1 (5 nt ssRNA)]: binds (Nsp9COV19 (15N-labeled) [2]).
